Columns and labels:
solid (insoluble) Aβ1-42 = solid (insoluble) Aβ1-42 (Homo sapiens, UniProt P05067); assay: Hydrolysis activity against solid (insoluble) Aβ1-42
Method: As a solid substrate, a crystal of Aβ42 was used. […] In the case of MS analysis, the MS analysis was performed after applying 100 μl of the reaction solution to HPLC and collecting an aliquot of the peak.

Aβ11-29 [1] = target: T1, Aβ11-29 (Homo sapiens, UniProt P05067); assay: Hydrolysis activity against Aβ11-29
Method: (§4) Further, any change in activity caused by addition of human serum albumin (HSA, Wako Pure Chemical Industries, Ltd., final concentration 0.025%) also was measured.
(§5) As substrates, Aβ42 in the form of soluble powder (authentic sample, Peptide Institute Inc.) and fragment peptides thereof, namely, Aβ1-20, Aβ11-29, and soluble Aβ28-42, were used. […] In the case of MS analysis, the MS analysis was performed after applying 20 μl of the reaction solution to HPLC and collecting an aliquot of the peak.
As a substrate, Aβ11-29, which is a fragment peptide of Aβ42, was used. […] In the case of MS analysis, the MS analysis was performed after applying 20 μl of the reaction solution after the reaction for 6 days to HPLC and collecting an aliquot of the peak.
(§6) The present experiment examined activity against Aβ-Fs in Example 7.
The reaction solution V shown in FIG. 52 was incubated at 37° C. for a predetermined time, and autodigestion of ANA-YA4 (YRMI) and cleavage of Aβ11-29 were examined.
A reaction solution VI shown in FIG. 52 was incubated at 37° C. for a predetermined time, and cleavage of Aβ1-20 and Aβ11-29 by ANA-SA5 was examined.
(§7) As substrates, the same Aβ1-20 and Aβ11-29 as used in Example 7 were used.
The present example examined autodigestion and activity against Aβ-F of JAL 12-17 (YKGSGF) and JAL 12-16 (YKGSG). […] As a substrate, the same Aβ11-29 as used in Example 7 was used. The autodigestion was examined by causing the reaction in the same manner, except that the substrate was not added.

Aβ28-42 = Aβ28-42 (Homo sapiens, UniProt P05067); assay: Hydrolysis activity against Aβ28-42; type: biochemical
Aβ1-20 = Aβ1-20 (Homo sapiens, UniProt P05067); assay: Hydrolysis activity against Aβ1-20
Method: as §4, §5, §6, §7

[2] = target: soluble Aβ1-42 (Aβ42 authentic sample) (Homo sapiens, UniProt P05067); assay: Hydrolysis activity against soluble Aβ1-42 (authentic sample)
Method: as §5
Aβ42 was used as a substrate. […] In the case of MS analysis, the MS analysis was performed after applying 20 μl of the reaction solution after the reaction for 7 days to HPLC and collecting an aliquot of the peak.

Tau MBD 1-30 = Tau MBD 1-30 (Homo sapiens, UniProt P10636); assay: Hydrolysis activity against Tau MBD 1-30; type: biochemical
Excerpt: As a substrate, a Tau microtubule binding domain (MBD)-derived fragment (Tau MBD1-30) was used.

Aβ11-29 [3] = target: T1, Aβ11-29; assay: Intermolecular interaction with Aβ11-29 (AFFINX QNμ); type: binding; conditions: JAL-TA9 immobilized on platinum electrode
Excerpt: (§1) Intermolecular interactions of JAL-TA9 with Aβ42 and with Aβ-F were examined using an AFFINX QNμ (trade name, INITIUM, Inc.) in accordance with its protocol. The results obtained are shown in the graphs of FIG. 40. In FIG. 40, X indicates the result obtained when JAL-TA9 was not immobilized on a platinum electrode, and Y indicates the result obtained when JAL-TA9 was immobilized on the platinum electrode.

αA-crystallin = target: T2, αA-crystallin (Homo sapiens, UniProt P02489); assay: Degradation of αA-crystallin 71-88 fragment peptide; type: biochemical
T2 construct: consisting of 71-88 residues of αA-crystallin; made in house; host or cells: chemical synthesis (Setsunan University)
Excerpt: As a substrate, a fragment peptide with the following sequence consisting of 71-88 residues of αA-crystallin (synthesized in Setsunan University) was used.

Aβ42 = Aβ42 (Homo sapiens, UniProt P05067); assay: Intermolecular interaction with Aβ42 (AFFINX QNμ); type: binding; conditions: JAL-TA9 immobilized on platinum electrode
Excerpt: as §1

Aβ1-20 and Aβ11-29 = assay: Reaction rates / Km for Aβ1-20 and Aβ11-29; type: biochemical; conditions: Aβ-F 0.05, 0.2 or 0.4 mmol/l, 0 or 1 hour
Method: HPLC was performed with the Aβ-F concentration in a reaction solution being set to 0.05, 0.2, or 0.4 mmol/l and a reaction time being set to 0 hours or 1 hour. Then, on the basis of the reduction rate of the peak of each Aβ-F, the Km value was determined.

[4] = Autodigestion of the catalytic peptide (HPLC, MS); type: biochemical
Method: First, to a buffer solution (Tris-HCl, pH 6.5, final concentration: 100 mmol/l), JAL (final concentration: 0.2 mmol/l) and the fragment peptide of hMMP7 (final concentration 0.05 mmol/l) were added. […] Thereafter, the reaction solution was subjected to HPLC, and the peaks of JAL and the fragment peptide of hMMP7 were examined. HPLC was performed under the following conditions.
Next, the mechanism of autodigestion was examined using various mutants of JAL as hydrolytic peptides. To a reaction solution containing each of the mutants of JAL, a protease inhibitor (trade name: Roche cOmplete, Roche) was added to cause a reaction. One tablet of the protease inhibitor was dissolved in 1 ml of Milli-Q water, and then, 50 μl of the resultant mixture was added to the reaction solution. […] As a result, the autodigestion of all the peptides subjected to the measurement was inhibited (FIG. 16).
Autodigestion in Box B was examined.
JAL-TA9 was reacted in the same manner except that a substrate was not added to examine the autodigestion of JAL-TA9.
The influence of an inhibitor on autodigestion of JAL-TA9 was examined. […] As the protease inhibitor, the serine protease inhibitor AEBSF, which inhibited the autodigestion of JAL 12-22 C19M in the item (6) in Example 4, was used.

[5] = target: T3, bovine serum albumin (BSA) (Bos taurus, UniProt P02769); assay: Cleavage of BSA as substrate; type: biochemical; conditions: BSA 0.025%
T3 construct: purchased Wako Pure Chemical Industries, Ltd
Method: (§2) On the other hand, by adding either HSA or BSA to the reaction solution, autodigestion of JAL 7-22 C 19M was […]. […] Since serum albumin is present in the body, it is considered that the hydrolytic peptide is suitable for use in the body. In experiments to be described below, the hydrolysis activity of JAL was measured in a reaction solution containing HSA.

SOD1 2-38 = SOD1 2-38 (Homo sapiens, UniProt P00441); assay: Hydrolysis activity against SOD1 2-38; type: biochemical; conditions: Example 3 (1); substrate SOD1 2-38 or SOD1 2-12
Method: As a control, physiological saline (0.9 w/v %) was used instead of the buffer solution. […] Also, it is considered that physiological saline is suitable for storage of JAL before use, for example.
Next, an experiment was conducted to consider an optimal pH for activity using JAL as the hydrolytic peptide and SOD1 2-38 as a substrate.
Metal ions to be added to a reaction solution were Zn^2+, Ca^2+, Co^2+, or combinations thereof. The concentrations of the metal ions in the respective reaction solutions were as follows: 10 mmol/l for Ca^2+; and 5 μmol/l for the other metal ions.
(§3) In JAL 1-22 C19M and JAL 7-22 C19M, Cys residues contained in JAL form S—S bonds during a reaction, and this makes fragment analysis difficult. On this account, JAL 1-22 and JAL 7-22 were modified so as to substitute Cys residues by Met.

SOD1 2-12 = SOD1 2-12 (Homo sapiens, UniProt P00441); assay: Hydrolysis activity against SOD1 2-12; type: biochemical; conditions: Example 3 (1); substrate SOD1 2-38 or SOD1 2-12
Excerpt: as §3

[6] = target: T4, human serum albumin (HSA) (Homo sapiens, UniProt P02768); assay: Cleavage of HSA as substrate; type: biochemical; conditions: HSA 0.025%
T4 construct: purchased Wako Pure Chemical Industries, Ltd
Method: as §2

[7] = reaction solution composition 1 (PBS, HSA), 37° C., overnight

Tau MBD 1-30, sequence (P10636 609-638 limits assumed): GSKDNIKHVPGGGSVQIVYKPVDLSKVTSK
T3 sequence (P02769 25-607): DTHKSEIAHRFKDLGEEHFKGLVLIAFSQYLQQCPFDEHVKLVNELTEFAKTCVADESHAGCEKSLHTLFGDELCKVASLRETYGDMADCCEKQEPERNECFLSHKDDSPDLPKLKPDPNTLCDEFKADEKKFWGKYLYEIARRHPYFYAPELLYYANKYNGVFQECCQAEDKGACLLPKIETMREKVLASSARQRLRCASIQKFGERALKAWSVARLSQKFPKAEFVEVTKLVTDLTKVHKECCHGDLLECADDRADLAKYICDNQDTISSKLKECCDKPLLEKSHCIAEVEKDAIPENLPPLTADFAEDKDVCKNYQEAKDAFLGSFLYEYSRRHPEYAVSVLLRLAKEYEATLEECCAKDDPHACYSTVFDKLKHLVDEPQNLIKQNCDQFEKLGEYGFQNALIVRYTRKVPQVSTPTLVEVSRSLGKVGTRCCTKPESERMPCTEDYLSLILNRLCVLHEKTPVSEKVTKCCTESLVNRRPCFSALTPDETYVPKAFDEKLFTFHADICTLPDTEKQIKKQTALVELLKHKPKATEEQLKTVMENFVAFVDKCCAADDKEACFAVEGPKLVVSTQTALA
SOD1 2-38, sequence (P00441 2-38 limits assumed): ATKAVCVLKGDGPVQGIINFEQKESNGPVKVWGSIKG

Question: With PYKGSGFRMI [JAL-TA9] as the sequence, how does the “cleavage of solid Aβ42 (MS)” value (solid (insoluble) Aβ1-42; solid Aβ42) read?
Answer: activity against the solid Aβ42 also was observed

Question: What about the “degradation of Aβ42 (HPLC)” value (solid (insoluble) Aβ1-42; solid Aβ42, reaction solution composition 2) of the same sequence?
Answer: degraded both types of Aβ42

Question: And the “cleavage sites in Aβ-Fs (MS)” value (Aβ11-29 [1]; Example 7)?
Answer: cleaved at a plurality of sites

Question: And the “degradation of Aβ-Fs (HPLC)” value (Aβ11-29 [1]; [7])?
Answer: degraded all the Aβ-Fs

Question: And the “cleavage sites in Aβ-Fs (MS)” value (Aβ28-42; Example 7)?
Answer: cleaved at a plurality of sites

Question: What about the “degradation of Aβ-Fs (HPLC)” value (Aβ28-42; [7]) of the same sequence?
Answer: degraded all the Aβ-Fs

Question: What about the “cleavage sites in Aβ-Fs (MS)” value (Aβ1-20; Example 7) of the same sequence?
Answer: cleaved at a plurality of sites

Question: And the “degradation of Aβ-Fs (HPLC)” value (Aβ1-20; [7])?
Answer: degraded all the Aβ-Fs

Question: And the “degradation of Aβ42 (HPLC)” value ([2]; authentic sample Aβ42, reaction solution composition 1)?
Answer: degraded both types of Aβ42

Question: What about the “cleavage sites in Aβ42 (MS)” value ([2]; soluble authentic sample, 7 days) of the same sequence?
Answer: cleaved at a plurality of sites

Question: What about the “region of Aβ42 cleaved” value ([2]; summary of cleavage sites, FIG. 39) of the same sequence?
Answer: strong cleavage activity was exhibited against an intermediate region of Aβ42

Question: What about the “fragment identification by MS” value (Tau MBD 1-30; reaction for 1 day) of the same sequence?
Answer: fragments of Tau MBD 1-30 resulting from the cleavage by JAL-TA9

Question: And the “fragment identification by MS” value (Tau MBD 1-30; reaction for 5 days)?
Answer: fragments of Tau MBD 1-30 resulting from the cleavage by JAL-TA9

Question: What about the “degradation of Tau MBD 1-30 (HPLC)” value (Tau MBD 1-30; reaction solution composition 3, 37° C., overnight) of the same sequence?
Answer: degraded Tau MBD 1-30

Question: What about the intermolecular interaction (Aβ11-29 [3]) of the same sequence?
Answer: strong interaction

Question: What about the “fragment identification by MS” value (αA-crystallin) of the same sequence?
Answer: fragments of αA-crystallin resulting from the cleavage by JAL-TA9 were detected

Question: And the “degradation of αA-crystallin” value (αA-crystallin; JAL-TA9 0.2 mmol/l, PBS, HSA, reaction for 1 day)?
Answer: could degrade αA-crystallin

Question: And the intermolecular interaction (Aβ42)?
Answer: strong interaction

Question: And the “Km value, affinity of substrate to peptide” value (Aβ1-20 and Aβ11-29)?
Answer: Aβ11-29 has higher affinity to JAL-TA9 than Aβ1-20

Question: And the “autodigestion in presence of protease inhibitor” value ([4]; AEBSF 6 mmol/l)?
Answer: autodigestion was inhibited

Question: And the autodigestion ([4]; Example 7, substrate not added)?
Answer: autodigestion of JAL-TA9 was observed

Question: What about the autodigestion ([4]; Example 13, with αA-crystallin fragment) of the same sequence?
Answer: digested itself

Question: What about the “autodigestion in presence of protease inhibitor” value ([4]; reaction solution IV, 6 hours) of the same sequence?
Answer: inhibited by the protease inhibitor

Question: What does the source list for YPEKPYKGSGFRMIHI [JAL 7-22 C19M]?
Answer: cleavage of albumin as substrate [5]: cleavage by JAL was not observed; hydrolysis activity against Aβ1-20 (Aβ1-20; Example 3 (2), (6)): exhibited activity; hydrolysis activity of JAL mutants (SOD1 2-38): exhibited hydrolysis activity; hydrolysis activity of JAL mutants (SOD1 2-12): exhibited hydrolysis activity; cleavage of albumin as substrate [6]: cleavage by JAL was not observed; autodigestion in presence of protease inhibitor ([4]; HSA added, Roche cOmplete or AEBSF): fragments generated by autodigestion disappeared; autodigestion, effect of albumin ([4]; HSA or BSA (0.025%) added): enhanced
